Data taken from article doi:10.1101/2021.11.09.467869 (bioRxiv, 2021).

Target: the molecule itself
Assay: SEC + other: negative-staining EM

B1: L6 TIR domain (L6^TIR), residues 26-231 (domain or fragment, UniProt Q40253 26-231, looked up)
chain: PNSKDSIVNDDDDSTSEVDAISDSTNPSGSFPSVEYEVFLSFRGPDTREQFTDFLYQSLRRYKIHTFRDDDELLKGKEIGPNLLRAIDQSKIYVPIISSGYADSKWCLMELAEIVRRQEEDPRRIILPIFYMVDPSDVRHQTGCYKKAFRKHANKFDGQTIQNWKDALKKVGDLKGWHIGKNDKQGAIADKVSADIWSHISKENLI
**Q.** Does B1 bind?
**A.** Result: binds
